Experimental data from the nanobody polyreactivity screen of Harvey et al. (2022).

Test: yeast display, Sf9 membrane polyspecificity reagent, FACS + sequencing; frameworks hold sequencing errors
Procedure, shortened: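 Using colony PCR, genes from sorted yeast display clones were amplified, then sequenced on MiSeq at 2 × 250 and filtered by CDR length. The clones had been stained with 10% biotinylated, detergent-solubilized Sf9 membrane reagent for 1 hour at 4 °C and sorted by FACS into low and high (top ~1%) gates on anti-HA and streptavidin fluorescence. Polyreactivity labels come from the gate of origin.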

| Sequence | polyreactivity (PSR sort gate) |
| --- | --- |
| QVQLVESGGGLVQAGGSLRLSCAASAWYAMGWYRQAPGKEREFVAAITFSGSSTYYADSVKGRFTISRDNAKNTVYLQMNSLKPEDTAVYYCNADWWEWGQGTQVTVSS | low polyreactivity |
| QVQLVESGGGLVQAGGSLRLSCAASGAIFVPYAMGWYRQAPGKERELVAAITYSDGSTYYADSVKGRFTISRDNAKNTVYLQMNSLKPEDTAVYYCAAEWIEFPDPVSWYYYTPYYYWGQGTQVTVSS | high polyreactivity |
| QVQLVESGGGLVQAGGSLRLSCAASGATFGYYGMGWYRQAHGTERELVAAISTRGDSTYYADSVMGRFTISRDNAKNPVYLQMHSLKPEDPAGYYCAKSRQSSGRVRFDYWGQGTQVTVSS | low polyreactivity |
| QVQLVESGGGLVQAGGSLRLSCAASGATFTFYAMGWYRQAPGKERELVATINWSGGSTYYADSVKGRFTISRDNSKYTVYLQMNSMKPEDTAVFYCNAACPFKSVEYWGQGTQVTVSS | low polyreactivity |
| QVQLVESGGGLVQAGGSLRLSCAASGCIFFQYAMGWYIQAPGKERELVAAISGSGVTTYYADSVKGRFTISRDNAKNTVYLQMNSLKPEDTAVYYCNAALRWKYDWGQGTQVTVSS | low polyreactivity |
| QVQLVESGGGLVQAGGSLRLSCAASGCIFRYYAKGWYRQPPGKERELVPVISSNGARTSYADSVKGRFTISRDNATYTVYLQMNSLKPEDTAVYYCNARAWSRFPPVGHDDWGQGTQVTVSS | high polyreactivity |
| QVQLVESGGGLVQAGGSLRLSCAASGCIFVRYAMGWYRQAPGKERELVAAISRSGGSTSYADSVKGRFTISRDNAKNTVYLQMNSLKPEDTAVYYCAVVRGGRGYPGYDYWGQGTQVTVSS | low polyreactivity |
| QVQLVESGGGLVQAGGSLRLSCAASGCTFPLYAMGWYRPAPGKERELVAAITSGGGNTYYADSVKGRFTISRDNAKNTVYLQMNSLKPEDTAVYYCAAVGGYKSYYSYEYDYWGQGTQVTVSS | low polyreactivity |
| QVQLVESGGGLVQAGGSLRLSCAASGCTFQTYAMGWYRQAPGKERELVAGITAGGSTNYADSVKGRFSISRDNAKNTVYLQMNSLKPEDTAVYYCAVRQISQTSDHRLQYDYWGQGTQVNVSS | low polyreactivity |
| QVQLVESGGGLVQAGGSLRLSCAASGFAFSYYAMGWSRQAPGKEREFVASIDWSGGSTYYADSVKGRFTISRDNAKNTVYLQMNSLKPEDTAVYYCAAELDYFPGYDYWGQGTQVTVSS | low polyreactivity |
| QVQLVESGGGLVQAGGSLRLSCAASGFAFSYYAMGWYIPAPGKEREFVASIDWSGGSTYYADSVKGRFTISRDNAKNTVYLQMNSLKPEDTAVYYCAAELDYFPGYDYWGQGTQVTVSS | low polyreactivity |
| QVQLVESGGGLVQAGGSLRLSCAASGFAFSYYAMGWYRQAPGKEREFVASIDWSGGSTYYADSVKGRFTISRDIAKTTVYLQMNRLKPEDTAVYYCAAELDYFPGYDYWGQGTQVTVSS | low polyreactivity |
| QVQLVESGGGLVQAGGSLRLSCAASGFICAQNAMGWYRQAPGKERELVADISGRGGRTYYADSVKGRFTISRDNAKNTVYLQMNSLKPEDTAVYYCAKDTYLQIYQYGYWGQGTQVTVSS | high polyreactivity |
| QVQLVESGGGLVQAGGSLRLSCAASGFIDAYTMGWYRQAPWKERELVAAITWSGGRTYYADSVKGRFTISRDNAKNTVYLQMNSLKPEDTAVYYCAKDVTPYSPDDDYWGQGTQVTVSS | low polyreactivity |
| QVQLVESGGGLVQAGGSLRLSCAASGFIDVSYAMGWYRQAPGKERELVAAIDRIGGITYYADSVKGRFTISRDNAKNTVYLQMNSLKPEDTAVYYCAAAARYATVRVGREYYWGQGTQVTVSS | low polyreactivity |
| QVQLVESGGGLVQAGGSLRLSCAASGFIFAAYAMGWYRQAPGKERELVAAISYSGDRTYYADSVKGRFTISRDNAKNTVYLQMNSLKPEDTAVYYCDADARAYTYDYWGQGTQVTVSS | high polyreactivity |
| QVQLVESGGGLVQAGGSLRLSCAASGFIFADYAMGWYRQAPGKERELVAAISASGGITYYADSVKGRFTISRDNAKNTVYLQMNSLKPEDTAVYYCNAVTGKWNWRKYDYWGQGTQVTVSS | high polyreactivity |
| QVQLVESGGGLVQAGGSLRLSCAASGFIFAFYAMGWYRQAPGKERELVAAISLSGGSTYYADSVKGRFTISRDNAKITVYLQMNSLKPDDTAVYYCAASRYKFYYWGQGTQVTVSS | high polyreactivity |
| QVQLVESGGGLVQAGGSLRLSCAASGFIFAGTAMGWYRQAPGKEWELVAAITRSGTNTYYADSVKGRFTISRDHAKNTVFLQMNSLKPEDTAVYYCNATVRYRYPYGYWGQGTQVTVSS | high polyreactivity |
| QVQLVESGGGLVQAGGSLRLSCAASGFIFAGYAMGWYRQAPGKERELVAGITRNGGSTYYADSVKGRFTISRDNAKITVYFQMYSLNPEDTAVYYCAATRYSFGPRRVDYWRQGTQVTVSS | high polyreactivity |
| QVQLVESGGGLVQAGGSLRLSCAASGFIFAGYHMAWYRQAPGKERELVAAISSSGANTYYADSVKGRFTISRDNAKNTVYLQMNSLKPEYSAVYYCAALYHWTYDYWGQGTQVTVSS | low polyreactivity |
| QVQLVESGGGLVQAGGSLRLSCAASGFIFAGYTMGWYRQAPGKERELVAAINSGGSTKYADSVKGRFTISRDNAKNTVYLHMNSLKPEDTAVYYCNADYGWYFLFDYWGQGTQVTVSS | low polyreactivity |
